Results as given in IntAct's records for PubMed 12393858.

Molecular target: ipp2_human PPP1R2 (UniProt P41236)
Sequence (P41236 whole entry): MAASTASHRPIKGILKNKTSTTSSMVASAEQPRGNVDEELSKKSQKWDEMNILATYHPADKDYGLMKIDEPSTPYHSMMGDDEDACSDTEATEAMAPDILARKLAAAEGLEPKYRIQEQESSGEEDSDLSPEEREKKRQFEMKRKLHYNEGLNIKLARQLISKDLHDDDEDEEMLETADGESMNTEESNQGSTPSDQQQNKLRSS

Substance: Serine/threonine-protein kinase LMTK2 (Homo sapiens), Q8IWU2 V1356A;F1358A
- effect of a mutation on the interaction: disrupting interaction
